# Source: article PMC5120205 (Nature Communications, 2016)
# What was measured:
# Conditions in all cases: both partners purified
# [1] = biological target: T1, recombinant IsdB NEAT1 domain (Staphylococcus aureus USA300, UniProt Q2FHV2); experiment: ELISA
# T1 construct: not shown: FLAG, C-terminal, kept
# [2] = biological target: T2, recombinant full-length IsdB (Staphylococcus aureus USA300, UniProt Q2FHV2); experiment: SPR
# T2 construct: not shown: FLAG, C-terminal, kept
# [3] = biological target: T3, recombinant IsdB NEAT2 domain (Staphylococcus aureus USA300, UniProt Q2FHV2); experiment: ELISA
# T3 construct: not shown: FLAG, C-terminal, kept
# [4] = biological target: T2, recombinant full-length IsdB; experiment: BLI; Octet; antibody captured on anti-species sensors (15 ug/ml), 32 nM rIsdB bound, then 1 uM Hb or buffer
# [5] = biological target: T4, recombinant full-length IsdB (Staphylococcus aureus USA300, UniProt Q2FHV2); experiment: ELISA
# T4 construct: not shown: FLAG, C-terminal, kept
# IsdB NEAT2 domain = IsdB NEAT2 domain (Staphylococcus aureus USA300, UniProt Q2FHV2); experiment: SPR
# [6] = biological target: T4, recombinant full-length IsdB; experiment: SPR; remark: listed apart in the source
# [7] = biological target: T5, recombinant full-length IsdB (Staphylococcus aureus USA300, UniProt Q2FHV2); experiment: ELISA; remark: listed apart in the source
# T5 construct: not shown: FLAG, C-terminal, kept
binder,measurement,setting,value
"D4-10-N1 (antibody, V domains shown) VH: QVQLQESGPGLVKPSETLSLICTVSGGSISSSSYYWGWIRQTPERNLEWIGIIYFSGTTYYNPSLQSRVSMSLDRSTNRFSLRLSSVTAADTAIYYCAKPKSRDRGGPGDDYFGMDVWGQGIMVTVSS VL: DIQLTQSPSFLSASVADRVTITCRASQAVRSSLAWYQQKPGKAPQLLIYSASTLENGVSSRFSGSGPGTEFTLTISSLQPEDVGTYYCQQLNTYPFTFGPGTKVEIK",binding result,[1],binds
same,Kd,[2],< 1 pM
"D4-30-N2 (antibody, V domains shown) VH: QVQLVQSGSEVKKPGSSVTLSCKASGDTFNTHTYSWVRQAPGQRLEWIGGIMPIFAASKSAPHLQDRLTITANKATRTAYMELTSLTSDDSGVYYCARDGRGALQYWGQGTLVTVSS VL: DIVMTQSPLSLPVTLGQPASISCSSAQSLVHSDGDSYLTWFHQRPGQSPRRLIYKVSIRDAGVPDRFSGSGSGTDFTLKISRVEAEDVGVYYCMQATHWPYTFGQGTKLEIK",binding result,[3],binds
"germlined D4-10 (NEAT1) (antibody, V domains shown) VH: QLQLQESGPGLVKPSETLSLTCTVSGGSISSSSYYWGWIRQPPGKGLEWIGSIYYSGSTYYNPSLKSRVTISVDTSKNQFSLKLSSVTAADTAVYYCAKPKSRDRGGPGDDYFGMDVWGQGIMVTVSS VL: DIQLTQSPSFLSASVADRVTITCRASQAVRSSLAWYQQKPGKAPQLLIYSASTLENGVSSRFSGSGPGTEFTLTISSLQPEDVGTYYCQQLNTYPFTFGPGTKVEIK",binding result,[4],binds
"D4-30-N2 antibody (human IgG) (antibody, V domains shown) VH: QVQLVQSGSEVKKPGSSVTLSCKASGDTFNTHTYSWVRQAPGQRLEWIGGIMPIFAASKSAPHLQDRLTITANKATRTAYMELTSLTSDDSGVYYCARDGRGALQYWGQGTLVTVSS VL: DIVMTQSPLSLPVTLGQPASISCSSAQSLVHSDGDSYLTWFHQRPGQSPRRLIYKVSIRDAGVPDRFSGSGSGTDFTLKISRVEAEDVGVYYCMQATHWPYTFGQGTKLEIK",binding result,[5],binds
same,binding result,IsdB NEAT2 domain,binds
"D2-06-N2 (IGHV1-69*01 germline-reverted) (antibody, V domains shown) VH: QVQLVQSGAEVKKPGSSVKVSCKASGGTFSSYAISWVRQAPGQGLEWMGGIIPIFGTANYAQKFQGRVTITADESTSTAYMELSSLRSEDTAVYYCARDRPPGAQFDTWGQGTLVTVSS VL: not shown",other,IsdB NEAT2 domain,> 600 fold
"D2-06-N2 (IGHV1-69*01 germline-reverted) variant F54L (antibody, V domains shown) VH: QVQLVQSGAEVKKPGSSVKVSCKASGGTFSSYAISWVRQAPGQGLEWMGGIIPILGTANYAQKFQGRVTITADESTSTAYMELSSLRSEDTAVYYCARDRPPGAQFDTWGQGTLVTVSS VL: not shown",binding result,[5],binds
"D2-06-N2 (IGHV1-69*01 germline-reverted) variant T56I (antibody, V domains shown) VH: QVQLVQSGAEVKKPGSSVKVSCKASGGTFSSYAISWVRQAPGQGLEWMGGIIPIFGIANYAQKFQGRVTITADESTSTAYMELSSLRSEDTAVYYCARDRPPGAQFDTWGQGTLVTVSS VL: not shown",binding result,[5],binds
"D4-10-N1 antibody (human IgG) (antibody, V domains shown) VH: QVQLQESGPGLVKPSETLSLICTVSGGSISSSSYYWGWIRQTPERNLEWIGIIYFSGTTYYNPSLQSRVSMSLDRSTNRFSLRLSSVTAADTAIYYCAKPKSRDRGGPGDDYFGMDVWGQGIMVTVSS VL: DIQLTQSPSFLSASVADRVTITCRASQAVRSSLAWYQQKPGKAPQLLIYSASTLENGVSSRFSGSGPGTEFTLTISSLQPEDVGTYYCQQLNTYPFTFGPGTKVEIK",binding result,[6],binds
"D4-10-N1 germline-reverted (IGHV4-39) (antibody, V domains shown) VH: QLQLQESGPGLVKPSETLSLTCTVSGGSISSSSYYWGWIRQPPGKGLEWIGSIYYSGSTYYNPSLKSRVTISVDTSKNQFSLKLSSVTAADTAVYYCAKPKSRDRGGPGDDYFGMDVWGQGIMVTVSS VL: DIQLTQSPSFLSASVADRVTITCRASQAVRSSLAWYQQKPGKAPQLLIYSASTLENGVSSRFSGSGPGTEFTLTISSLQPEDVGTYYCQQLNTYPFTFGPGTKVEIK",binding result,[6],binds
"D2-06-N2 (IGHV1-69*01 germline-reverted) variant G50R (antibody, V domains shown) VH: QVQLVQSGAEVKKPGSSVKVSCKASGGTFSSYAISWVRQAPGQGLEWMGRIIPIFGTANYAQKFQGRVTITADESTSTAYMELSSLRSEDTAVYYCARDRPPGAQFDTWGQGTLVTVSS VL: not shown",binding result,[7],no binding
